Test results published in US20220041999A1 (NEOGENE THERAPEUTICS B V, published 2022).

Legend:
sFOS-mDHFR_B = target: T1, sFOS-mDHFR_B (murine); test: cell-based or functional assay
T1 chain: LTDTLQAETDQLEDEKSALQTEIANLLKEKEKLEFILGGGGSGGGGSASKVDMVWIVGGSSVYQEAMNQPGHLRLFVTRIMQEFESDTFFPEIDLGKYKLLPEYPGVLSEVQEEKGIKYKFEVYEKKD

FOS^MUT3AA-mDHFR_B = target: T2, FOS^MUT3AA-mDHFR_B; test: cell-based or functional assay
T2 chain: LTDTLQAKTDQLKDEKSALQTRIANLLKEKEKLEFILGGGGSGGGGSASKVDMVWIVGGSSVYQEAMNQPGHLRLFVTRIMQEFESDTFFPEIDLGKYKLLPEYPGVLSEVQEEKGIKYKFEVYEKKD

sFOS^MUT8AA-mDHFR_B = target: T3, sFOS^MUT8AA-mDHFR_B; test: cell-based or functional assay
T3 chain: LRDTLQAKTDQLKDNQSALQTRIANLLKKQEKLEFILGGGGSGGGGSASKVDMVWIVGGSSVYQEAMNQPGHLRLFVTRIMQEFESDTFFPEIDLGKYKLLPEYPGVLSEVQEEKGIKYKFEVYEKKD

FOS^MUT4AA-mDHFR_B [1] = target: T4, FOS^MUT4AA-mDHFR_B; test: cell-based or functional assay
T4 chain: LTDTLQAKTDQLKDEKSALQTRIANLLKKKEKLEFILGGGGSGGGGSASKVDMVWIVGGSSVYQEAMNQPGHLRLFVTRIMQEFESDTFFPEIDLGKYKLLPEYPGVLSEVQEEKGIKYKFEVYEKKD

FOS-mDHFRmt_B-2A = target: T5, FOS-mDHFRmt_B-2A; test: cell-based or functional assay
T5 chain: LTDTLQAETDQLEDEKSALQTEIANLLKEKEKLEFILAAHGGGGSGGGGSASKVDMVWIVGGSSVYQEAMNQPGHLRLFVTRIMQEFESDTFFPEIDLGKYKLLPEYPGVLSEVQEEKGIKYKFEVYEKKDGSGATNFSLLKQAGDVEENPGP

FOS-mDHFRmt_B = target: T6, FOS-mDHFRmt_B; test: cell-based or functional assay
T6 chain: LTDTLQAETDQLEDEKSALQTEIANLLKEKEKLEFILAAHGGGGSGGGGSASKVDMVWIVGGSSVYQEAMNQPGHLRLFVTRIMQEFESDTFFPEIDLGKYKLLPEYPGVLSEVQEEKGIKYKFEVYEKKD

FOS^MUT4AA-mDHFR_B [2] = target: T4, FOS^MUT4AA-mDHFR_B; test: split-DHFR complementation, 100 nM MTX 10 days, FACS
Excerpt: (§1) FIGS. 44A-44D show the results of MTX selection of double engineered BC76 T cells. Activated human primary T cells isolated from a buffy coat, BC76, were double-infected with retroviral vectors encoding an MTX-resistant murine DHFR^FS mutant (mDHFR) split into an N-terminal and C-terminal protein half (vector A and B), fused to heterodimerizing JUN-FOS leucine zippers. JUN^WT depicts a wildtype JUN leucine zipper, FOS^WT depicts a wildtype FOS leucine zipper, JUN^MUT3AA depicts a mutant JUN leucine zipper containing three acidic amino acids from FOS, FOS^MUT3AA depicts a mutant FOS leucine zipper containing three basic amino acids from JUN, JUN^MUT4AA depicts a mutant JUN leucine zipper containing four acidic amino acids from FOS, FOS^MUT4AA depicts a mutant FOS leucine zipper containing four basic amino acids from JUN. Vector A and B also encoded a Ly6G and CD90.2 transduction marker, respectively. Starting at 4 days post transduction, cells were either left untreated (row 1), or were treated with 100 nM MTX for 10 days (row 2), after which enrichment of double transduced cells was measured by FACS analysis.

FOS^WT-mDHFR_B [3] = target: T7, FOS^WT-mDHFR_B; test: cell-based or functional assay
T7 chain: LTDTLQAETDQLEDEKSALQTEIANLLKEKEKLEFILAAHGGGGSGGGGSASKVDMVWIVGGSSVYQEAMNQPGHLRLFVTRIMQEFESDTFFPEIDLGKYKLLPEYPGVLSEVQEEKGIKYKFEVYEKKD

FOS^WT-mDHFR_B [4] = target: T7, FOS^WT-mDHFR_B; test: split-DHFR complementation, 100 nM MTX 10 days, FACS
Excerpt: as §1

sJUN-mDHFR_A
fold enrichment of double transduced T cells (FACS), 100 nM MTX 6 days (FIGS. 51A-51B) (sFOS-mDHFR_B): 12.3 fold
fold enrichment of double transduced T cells (FACS), shorter zippers, donor A, 100 nM MTX 6 days (FIG. 49) (sFOS-mDHFR_B): 66 fold
fold enrichment of double transduced T cells (FACS), shorter zippers, donor B, 100 nM MTX 6 days (FIG. 49) (sFOS-mDHFR_B): 7.6 fold
fold enrichment of double transduced T cells (FACS), shorter zippers, donor A, 100 nM MTX 6 days (FIG. 49) (FOS^MUT3AA-mDHFR_B): 1.7 fold
fold enrichment of double transduced T cells (FACS), shorter zippers, donor B, 100 nM MTX 6 days (FIG. 49) (FOS^MUT3AA-mDHFR_B): 1.4 fold
fold enrichment of double transduced T cells (FACS), 100 nM MTX 6 days (FIGS. 51A-51B) (sFOS^MUT8AA-mDHFR_B): 1.5 fold
fold enrichment of double transduced T cells (FACS), shorter zippers, donor A, 100 nM MTX 6 days (FIG. 50) (FOS^MUT4AA-mDHFR_B [1]): 1.5 fold
fold enrichment of double transduced T cells (FACS), shorter zippers, donor B, 100 nM MTX 6 days (FIG. 50) (FOS^MUT4AA-mDHFR_B [1]): 1.2 fold

B1: JUN-mDHFRmt_A-2A (other)
chain: RIARLEEKVKTLKAQNSELASTANMLREQVAQLKQKVMNHGGGGSGGGGSMVRPLNCIVAVSQNMGIGKNGDFPWPPLRNESKYFQRMTTTSSVEGKQNLVIMGRKTWFSIPEKNRPLKDRINIVLSRELKEPPRGAHFLAKSLDDALRLIEQPELGSGATNFSLLKQAGDVEENPGP
fold enrichment of double transduced T cells (FACS), BC45, 25 nM MTX 4 days (FOS-mDHFRmt_B-2A): 5.3 fold
fold enrichment of double transduced T cells (FACS), BC45, 50 nM MTX 4 days (FOS-mDHFRmt_B-2A): 10.5 fold
fold enrichment of double transduced T cells (FACS), BC45, further 100 nM MTX 3 days, row 2 (FOS-mDHFRmt_B-2A): 15.5 fold
fold enrichment of double transduced T cells (FACS), BC45, further 100 nM MTX 3 days, row 3 (FOS-mDHFRmt_B-2A): 18.9 fold
fold enrichment of double transduced T cells (FACS), BC46, 25 nM MTX 4 days (FOS-mDHFRmt_B-2A): 3.6 fold
fold enrichment of double transduced T cells (FACS), BC46, 50 nM MTX 4 days (FOS-mDHFRmt_B-2A): 8.3 fold
fold enrichment of double transduced T cells (FACS), BC46, further 100 nM MTX 3 days, row 2 (FOS-mDHFRmt_B-2A): 10.4 fold
fold enrichment of double transduced T cells (FACS), BC46, further 100 nM MTX 3 days, row 3 (FOS-mDHFRmt_B-2A): 16.9 fold

B2: JUN-mDHFRmt_A (other)
chain: RIARLEEKVKTLKAQNSELASTANMLREQVAQLKQKVMNHGGGGSGGGGSMVRPLNCIVAVSQNMGIGKNGDFPWPPLRNESKYFQRMTTTSSVEGKQNLVIMGRKTWFSIPEKNRPLKDRINIVLSRELKEPPRGAHFLAKSLDDALRLIEQPEL
fold enrichment of double transduced T cells (FACS), BC45, 50 nM MTX 4 days (FOS-mDHFRmt_B): 4.4 fold
fold enrichment of double transduced T cells (FACS), BC45, further 100 nM MTX 3 days, row 2 (FOS-mDHFRmt_B): 11.3 fold
fold enrichment of double transduced T cells (FACS), BC45, further 100 nM MTX 3 days, row 3 (FOS-mDHFRmt_B): 94 fold
fold enrichment of double transduced T cells (FACS), BC46, 50 nM MTX 4 days (FOS-mDHFRmt_B): 6.2 fold
fold enrichment of double transduced T cells (FACS), BC46, further 100 nM MTX 3 days, row 2 (FOS-mDHFRmt_B): 4 fold
fold enrichment of double transduced T cells (FACS), BC46, further 100 nM MTX 3 days, row 3 (FOS-mDHFRmt_B): 23.2 fold

B3: JUN^WT-mDHFR_A (other)
chain: RIARLEEKVKTLKAQNSELASTANMLREQVAQLKQKVMNHGGGGSGGGGSMVRPLNCIVAVSQNMGIGKNGDFPWPPLRNESKYFQRMTTTSSVEGKQNLVIMGRKTWFSIPEKNRPLKDRINIVLSRELKEPPRGAHFLAKSLDDALRLIEQPEL
binding result (FOS^MUT4AA-mDHFR_B [2]): no binding
fold enrichment of double transduced T cells (FACS), BC54, 100 nM MTX 2 days (FOS^MUT3AA-mDHFR_B): 1.9 fold
fold enrichment of double transduced T cells (FACS), BC76, 100 nM MTX 10 days (FOS^MUT3AA-mDHFR_B): 3.1 fold
fold enrichment of double transduced T cells (FACS), donor B, 100 nM MTX 4 days (FOS^MUT3AA-mDHFR_B): 4 fold
fold enrichment of double transduced T cells (FACS), BC54, 100 nM MTX 2 days (FOS^WT-mDHFR_B [3]): 6.8 fold
fold enrichment of double transduced T cells (FACS), BC76, 100 nM MTX 10 days (FOS^WT-mDHFR_B [3]): 132 fold
fold enrichment of double transduced T cells (FACS), donor B, 100 nM MTX 4 days (FOS^WT-mDHFR_B [3]): 15.5 fold
fold enrichment of double transduced T cells (FACS), BC76, 100 nM MTX 10 days (FOS^MUT4AA-mDHFR_B [1]): 1.4 fold

B4: JUN^MUT3AA-mDHFR_A (other)
chain: RIARLEEEVKTLEAQNSELASTANMLEEQVAQLKQKVGGGGSGGGGSMVRPLNCIVAVSQNMGIGKNGDFPWPPLRNESKYFQRMTTTSSVEGKQNLVIMGRKTWFSIPEKNRPLKDRINIVLSRELKEPPRGAHFLAKSLDDALRLIEQPEL
fold enrichment of double transduced T cells (FACS), shorter zippers, donor A, 100 nM MTX 6 days (FIG. 49) (sFOS-mDHFR_B): 3.2 fold
fold enrichment of double transduced T cells (FACS), shorter zippers, donor B, 100 nM MTX 6 days (FIG. 49) (sFOS-mDHFR_B): 1.5 fold
fold enrichment of double transduced T cells (FACS), BC54, 100 nM MTX 2 days (FOS^MUT3AA-mDHFR_B): 5.6 fold
fold enrichment of double transduced T cells (FACS), BC76, 100 nM MTX 10 days (FOS^MUT3AA-mDHFR_B): 72 fold
fold enrichment of double transduced T cells (FACS), donor B, 100 nM MTX 4 days (FOS^MUT3AA-mDHFR_B): 10.5 fold
fold enrichment of double transduced T cells (FACS), shorter zippers, donor A, 100 nM MTX 6 days (FIG. 49) (FOS^MUT3AA-mDHFR_B): 49 fold
fold enrichment of double transduced T cells (FACS), shorter zippers, donor B, 100 nM MTX 6 days (FIG. 49) (FOS^MUT3AA-mDHFR_B): 6.6 fold
fold enrichment of double transduced T cells (FACS), BC54, 100 nM MTX 2 days (FOS^WT-mDHFR_B [3]): 3.9 fold
fold enrichment of double transduced T cells (FACS), BC76, 100 nM MTX 10 days (FOS^WT-mDHFR_B [3]): 19 fold
fold enrichment of double transduced T cells (FACS), donor B, 100 nM MTX 4 days (FOS^WT-mDHFR_B [3]): 11.2 fold

B5: sJUN^MUT8AA-mDHFR_A (other)
chain: TIARLEEEVKTLEAKESELASTANMLEEKVAQLEQKVGGGGSGGGGSMVRPLNCIVAVSQNMGIGKNGDFPWPPLRNESKYFQRMTTTSSVEGKQNLVIMGRKTWFSIPEKNRPLKDRINIVLSRELKEPPRGAHFLAKSLDDALRLIEQPEL
fold enrichment of double transduced T cells (FACS), 100 nM MTX 6 days (FIGS. 51A-51B) (sFOS-mDHFR_B): 0.9 fold
fold enrichment of double transduced T cells (FACS), 100 nM MTX 6 days (FIGS. 51A-51B) (sFOS^MUT8AA-mDHFR_B): 2.2 fold

B6: JUN^MUT4AA-mDHFR_A (other)
chain: RIARLEEEVKTLEAQNSELASTANMLEEQVAQLEQKVGGGGSGGGGSMVRPLNCIVAVSQNMGIGKNGDFPWPPLRNESKYFQRMTTTSSVEGKQNLVIMGRKTWFSIPEKNRPLKDRINIVLSRELKEPPRGAHFLAKSLDDALRLIEQPEL
binding result (FOS^WT-mDHFR_B [4]): no binding
fold enrichment of double transduced T cells (FACS), shorter zippers, donor A, 100 nM MTX 6 days (FIG. 50) (sFOS-mDHFR_B): 2.2 fold
fold enrichment of double transduced T cells (FACS), shorter zippers, donor B, 100 nM MTX 6 days (FIG. 50) (sFOS-mDHFR_B): 1.5 fold
fold enrichment of double transduced T cells (FACS), BC76, 100 nM MTX 10 days (FOS^WT-mDHFR_B [3]): 2.6 fold
fold enrichment of double knock-in T cells (FACS), BC78, 100 nM MTX 6 days (FOS^MUT4AA-mDHFR_B [1]): 54 fold
fold enrichment of double transduced T cells (FACS), BC76, 100 nM MTX 10 days (FOS^MUT4AA-mDHFR_B [1]): 70 fold
fold enrichment of double transduced T cells (FACS), shorter zippers, donor A, 100 nM MTX 6 days (FIG. 50) (FOS^MUT4AA-mDHFR_B [1]): 39 fold
fold enrichment of double transduced T cells (FACS), shorter zippers, donor B, 100 nM MTX 6 days (FIG. 50) (FOS^MUT4AA-mDHFR_B [1]): 4.7 fold
